Reference: patent US20140087995A1 (published 2014)
Blank lines part the entries; values can stand above or below the binder they belong to. Numbered stars: 1 amine (or outer) side, 2 acyl side, 3 side chain; on linkers, the order of the positions; unused ones are H or OH. Bridge positions count the residues as written; N and C are the ends. Side chains are listed from the residue outwards. Ends that are not written are not given here. * marks the point of attachment. C20 diacid = O=C(O)CCCCCCCCCCCCCCCCCCC(=O)*; γGlu = O=C(O)[C@H](CCC(=O)[*:2])N[*:1]

Columns and labels:
rat calcitonin receptor [1] = molecular target: T1, rat calcitonin receptor (rat, UniProt P32214 25-516); assay: SPA competition binding, displacement of 125I-Calcitonin from membranes of BHK tk'ts 13 cells with rat calcitonin receptor (Assay VIII)
T1 construct: whole, on cells; In cell membranes prepared from transiently transfected BHK tk'ts 13 cells (Assay VIII); also called rCTR; rat calcitonin (a) receptor
T1 sequence (looked up): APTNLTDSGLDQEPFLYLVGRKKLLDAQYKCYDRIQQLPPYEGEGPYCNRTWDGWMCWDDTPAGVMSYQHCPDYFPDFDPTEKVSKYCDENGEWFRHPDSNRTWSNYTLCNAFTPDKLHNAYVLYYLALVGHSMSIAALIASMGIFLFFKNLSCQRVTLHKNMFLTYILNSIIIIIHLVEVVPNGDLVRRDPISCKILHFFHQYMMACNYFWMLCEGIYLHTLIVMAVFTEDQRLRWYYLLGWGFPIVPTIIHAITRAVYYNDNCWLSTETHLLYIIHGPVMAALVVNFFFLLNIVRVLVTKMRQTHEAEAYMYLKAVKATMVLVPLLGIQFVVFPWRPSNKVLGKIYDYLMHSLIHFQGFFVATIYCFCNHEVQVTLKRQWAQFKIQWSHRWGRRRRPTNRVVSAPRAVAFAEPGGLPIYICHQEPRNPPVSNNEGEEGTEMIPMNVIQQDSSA

[2] = molecular target: T2, human calcitonin receptor (human, UniProt P30988 25-474); assay: ratio of binding IC50s: human calcitonin receptor (Assay VII) over human amylin receptor (Assay V)
T2 construct: whole, on cells; Cell membranes from the stably transfected cell line (Assay VII); also called hCTR; hCT
T2 sequence (looked up): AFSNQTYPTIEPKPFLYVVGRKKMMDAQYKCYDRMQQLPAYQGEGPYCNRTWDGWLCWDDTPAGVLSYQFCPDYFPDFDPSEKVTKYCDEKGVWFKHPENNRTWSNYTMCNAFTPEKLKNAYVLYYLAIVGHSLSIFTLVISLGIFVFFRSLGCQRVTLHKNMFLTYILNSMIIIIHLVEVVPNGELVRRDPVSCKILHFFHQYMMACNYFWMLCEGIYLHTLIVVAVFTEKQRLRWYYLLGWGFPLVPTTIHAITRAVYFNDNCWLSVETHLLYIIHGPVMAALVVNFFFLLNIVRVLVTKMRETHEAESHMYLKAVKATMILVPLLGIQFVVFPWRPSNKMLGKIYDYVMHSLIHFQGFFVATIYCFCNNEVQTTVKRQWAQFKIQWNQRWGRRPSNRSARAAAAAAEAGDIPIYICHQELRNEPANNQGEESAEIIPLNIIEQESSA
Protocol: The resulting pellet was resuspended, homogenized and centrifuged (20.000 rpm, 15 min) in a buffer containing 20 mM Na-HEPES and 0.1 mM EDTA (pH 7.4, buffer 2). The resulting pellet was resuspended in buffer 2 and protein concentration was measured (BCA protein Assay, Pierce). The homogenate was kept cold during the whole procedure. The membranes were kept at −80° C. until use. The assay was performed in a 384 well Optiplate (PerkinElmer) in a total volume of 40 ul. Membranes were mixed with SPA beads. Final concentration of membranes 35 ng/μL final and SPA beads was 0.05 mg/well. Test-compounds were dissolved in DMSO and further diluted in assay buffer (50 mM Hepes, pH 7.4, 1 mM CaCl2, 5 mM MgCl₂, 0.1% OA and 0.02% Tween20). […] The final mixture was incubated with shaking at 400 rpm for 120 min at 25° C. prior to centrifugation (1500 rpm, 10 min). Samples were analyzed on TopCounter™ (Packard). The IC₅₀ was calculated using (one site binding competition analysis) GraphPad Prism5 as a measure of receptor affinity.
Membranes were prepared in the following way; the cells were rinsed with PBS and incubated with Versene for approximately 5 min before harvesting. The cells were flushed with PBS and the cell-suspension was centrifuged for 5 min at 1000 rpm. Cells were homogenized (Ultrathurrax) in a buffer containing 20 mM Na-HEPES and 10 mM EDTA (pH 7.4) and centrifuged at 20.000 rpm for 15 min. The resulting pellet was resuspended, homogenized and centrifuged (20.000 rpm, 15 min) in a buffer containing 20 mM Na-HEPES and 0.1 mM EDTA (pH 7.4, buffer 2). The resulting pellet was resuspended in buffer 2 and protein concentration was measured (BCA protein Assay, Pierce). The homogenate was kept cold during the whole procedure. The membranes were kept at −80° C. until use. Assay was performed in a 384 well Optiplate (PerkinElmer) in a total volume of 40 ul. Membranes were mixed with SPA beads.

rat calcitonin receptor [3] = molecular target: T1, rat calcitonin receptor; assay: ratio of binding IC50s: rat calcitonin receptor (Assay VIII) over rat amylin receptor (Assay VI)
[4] = molecular target: T3, rat amylin receptor (rat calcitonin receptor + rat RAMP 3) (rat, UniProt P32214 25-516; Q9JJ73 23-147); assay: SPA competition binding, displacement of 125I-rat amylin from membranes of BHK tk'ts 13 cells with rat calcitonin receptor + rat RAMP 3 (Assay VI)
T3 construct: whole, on cells; Receptor complex in cell membranes prepared from transiently transfected BHK tk'ts 13 cells (Assay VI); also called rAmylin-R; rat amylin 3(a) receptor
T3 sequence (looked up) 1: T1 sequence (looked up)
T3 sequence (looked up) 2: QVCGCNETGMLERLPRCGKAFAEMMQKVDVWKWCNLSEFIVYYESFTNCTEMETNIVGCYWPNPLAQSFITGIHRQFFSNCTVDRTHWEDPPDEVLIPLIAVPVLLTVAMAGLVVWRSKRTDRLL
Protocol: The binding assay was performed using scintillation proximity assay (SPA) beads (RPNQ0001) from PerkinElmer and cell membranes from the Amylin 3(a)/CRE-luc cells (as described in Assay (II)) were used. Membranes were prepared in the following way; the cells were rinsed with PBS and incubated with Versene for approximately 5 min before harvesting. The cells were flushed with PBS and the cell-suspension was centrifuged for 5 min at 1000 rpm. Cells were homogenized (ultrathurrax) in a buffer containing 20 mM Na-HEPES and 10 mM EDTA (pH 7.4) and centrifuged at 20.000 rpm for 15 min. The resulting pellet was resuspended, homogenized and centrifuged (20.000 rpm, 15 min) in a buffer containing 20 mM Na-HEPES and 0.1 mM EDTA (pH 7.4, buffer 2). The resulting pellet was resuspended in buffer 2 and protein concentration was measured (BCA protein Assay, Pierce). The homogenate was kept cold during the whole procedure. The membranes were kept at −80° C. until use. The assay was performed in a 384 well Optiplate (PerkinElmer) in a total volume of 40 ul. Membranes were mixed with SPA beads. Final concentration of membranes 35 ng/μL final and SPA beads was 0.05 mg/well. Test-compounds were dissolved in DMSO and further diluted in assay buffer (50 mM Hepes, pH 7.4, 1 mM CaCl2, 5 mM MgCl₂, 0.1% OA and 0.02% Tween20). […] The final mixture was incubated with shaking at 400 rpm for 120 min at 25° C. prior to centrifugation (1500 rpm, 10 min). Samples were analyzed on TopCounter™ (Packard). The IC₅₀ was calculated using (one site binding competition analysis) GraphPad Prism5 as a measure of receptor affinity.
Cells were grown in DMEM with 10% FBS and 1% Pen/Strep. Approximately 48 hours after transfection, the cells were harvested and membranes were prepared.

IC50 (rat calcitonin receptor [1]): 31.9 nM
Ratio hCT/hAmylin binding [2]: 49.8
Ratio rCT/rAmylin binding (rat calcitonin receptor [3]): 98.5
IC50 [4]: 0.324 nM
B1: N^ε1-[(4S)-4-carboxy-4-[[(4S)-4-carboxy-4-(19-carboxynonadecanoylamino)butanoyl]amino]butanoyl]-[Asp14,Arg17,Pro21,Pro27,Pro34,Glu35]-h-amylin (peptide)
peptide: K([γGlu-γGlu-C20 diacid])CNTATCATQRLADFLRHSSPNFGAIPSSTNVGPETY-NH2
modifications: disulfide 2-7; N-terminus assumed
SMILES: CC[C@H](C)[C@H](NC(=O)[C@H](C)NC(=O)CNC(=O)[C@H](Cc1ccccc1)NC(=O)[C@H](CC(N)=O)NC(=O)[C@@H]1CCCN1C(=O)[C@H](CO)NC(=O)[C@H](CO)NC(=O)[C@H](Cc1c[nH]cn1)NC(=O)[C@H](CCCNC(=N)N)NC(=O)[C@H](CC(C)C)NC(=O)[C@H](Cc1ccccc1)NC(=O)[C@H](CC(=O)O)NC(=O)[C@H](C)NC(=O)[C@H](CC(C)C)NC(=O)[C@H](CCCNC(=N)N)NC(=O)[C@H](CCC(N)=O)NC(=O)[C@@H](NC(=O)[C@H](C)NC(=O)[C@@H]1CSSC[C@H](NC(=O)[C@@H](N)CCCCNC(=O)CC[C@H](NC(=O)CC[C@H](NC(=O)CCCCCCCCCCCCCCCCCCC(=O)O)C(=O)O)C(=O)O)C(=O)N[C@@H](CC(N)=O)C(=O)N[C@@H]([C@@H](C)O)C(=O)N[C@@H](C)C(=O)N[C@@H]([C@@H](C)O)C(=O)N1)[C@@H](C)O)C(=O)N1CCC[C@H]1C(=O)N[C@@H](CO)C(=O)N[C@@H](CO)C(=O)N[C@H](C(=O)N[C@@H](CC(N)=O)C(=O)N[C@H](C(=O)NCC(=O)N1CCC[C@H]1C(=O)N[C@@H](CCC(=O)O)C(=O)N[C@H](C(=O)N[C@@H](Cc1ccc(O)cc1)C(N)=O)[C@@H](C)O)C(C)C)[C@@H](C)O

IC50 (rat calcitonin receptor [1]): 223 nM
Ratio hCT/hAmylin binding [2]: 280
Ratio rCT/rAmylin binding (rat calcitonin receptor [3]): 240
IC50 [4]: 0.93 nM
B2: N^ε1-[(4S)-4-carboxy-4-[[(4S)-4-carboxy-4-(19-carboxynonadecanoylamino)butanoyl]amino]butanoyl]-[Asp14,Arg17,Pro21,Pro27,Pro34,Arg35]-h-amylin (peptide)
peptide: K([γGlu-γGlu-C20 diacid])CNTATCATQRLADFLRHSSPNFGAIPSSTNVGPRTY-NH2
modifications: disulfide 2-7
notes: also called compound 130

IC50 (rat calcitonin receptor [1]): 58.5 nM
Ratio hCT/hAmylin binding [2]: 151
Ratio rCT/rAmylin binding (rat calcitonin receptor [3]): 116
IC50 [4]: 0.504 nM
B3: N^ε1-[(4S)-4-carboxy-4-(19-carboxynonadecanoylamino)butanoyl]-[Asp14,Arg17,Pro21,Pro27,Pro34,Arg35]-h-amylin (peptide)
peptide: K([γGlu-C20 diacid])CNTATCATQRLADFLRHSSPNFGAIPSSTNVGPRTY-NH2
modifications: disulfide 2-7; N-terminus assumed
SMILES: CC[C@H](C)[C@H](NC(=O)[C@H](C)NC(=O)CNC(=O)[C@H](Cc1ccccc1)NC(=O)[C@H](CC(N)=O)NC(=O)[C@@H]1CCCN1C(=O)[C@H](CO)NC(=O)[C@H](CO)NC(=O)[C@H](Cc1c[nH]cn1)NC(=O)[C@H](CCCNC(=N)N)NC(=O)[C@H](CC(C)C)NC(=O)[C@H](Cc1ccccc1)NC(=O)[C@H](CC(=O)O)NC(=O)[C@H](C)NC(=O)[C@H](CC(C)C)NC(=O)[C@H](CCCNC(=N)N)NC(=O)[C@H](CCC(N)=O)NC(=O)[C@@H](NC(=O)[C@H](C)NC(=O)[C@@H]1CSSC[C@H](NC(=O)[C@@H](N)CCCCNC(=O)CC[C@H](NC(=O)CCCCCCCCCCCCCCCCCCC(=O)O)C(=O)O)C(=O)N[C@@H](CC(N)=O)C(=O)N[C@@H]([C@@H](C)O)C(=O)N[C@@H](C)C(=O)N[C@@H]([C@@H](C)O)C(=O)N1)[C@@H](C)O)C(=O)N1CCC[C@H]1C(=O)N[C@@H](CO)C(=O)N[C@@H](CO)C(=O)N[C@H](C(=O)N[C@@H](CC(N)=O)C(=O)N[C@H](C(=O)NCC(=O)N1CCC[C@H]1C(=O)N[C@@H](CCCNC(=N)N)C(=O)N[C@H](C(=O)N[C@@H](Cc1ccc(O)cc1)C(N)=O)[C@@H](C)O)C(C)C)[C@@H](C)O

IC50 (rat calcitonin receptor [1]): 18.6 nM
Ratio hCT/hAmylin binding [2]: 16.7
Ratio rCT/rAmylin binding (rat calcitonin receptor [3]): 62
IC50 [4]: 0.3 nM
B4: N^ε1-[(4S)-4-carboxy-4-(19-carboxynonadecanoylamino)butanoyl]-[Asp14,Arg17,Pro21,Pro27,Pro34,Glu35]-h-amylin (peptide)
peptide: K([γGlu-C20 diacid])CNTATCATQRLADFLRHSSPNFGAIPSSTNVGPETY-NH2
modifications: disulfide 2-7; N-terminus assumed
SMILES: CC[C@H](C)[C@H](NC(=O)[C@H](C)NC(=O)CNC(=O)[C@H](Cc1ccccc1)NC(=O)[C@H](CC(N)=O)NC(=O)[C@@H]1CCCN1C(=O)[C@H](CO)NC(=O)[C@H](CO)NC(=O)[C@H](Cc1c[nH]cn1)NC(=O)[C@H](CCCNC(=N)N)NC(=O)[C@H](CC(C)C)NC(=O)[C@H](Cc1ccccc1)NC(=O)[C@H](CC(=O)O)NC(=O)[C@H](C)NC(=O)[C@H](CC(C)C)NC(=O)[C@H](CCCNC(=N)N)NC(=O)[C@H](CCC(N)=O)NC(=O)[C@@H](NC(=O)[C@H](C)NC(=O)[C@@H]1CSSC[C@H](NC(=O)[C@@H](N)CCCCNC(=O)CC[C@H](NC(=O)CCCCCCCCCCCCCCCCCCC(=O)O)C(=O)O)C(=O)N[C@@H](CC(N)=O)C(=O)N[C@@H]([C@@H](C)O)C(=O)N[C@@H](C)C(=O)N[C@@H]([C@@H](C)O)C(=O)N1)[C@@H](C)O)C(=O)N1CCC[C@H]1C(=O)N[C@@H](CO)C(=O)N[C@@H](CO)C(=O)N[C@H](C(=O)N[C@@H](CC(N)=O)C(=O)N[C@H](C(=O)NCC(=O)N1CCC[C@H]1C(=O)N[C@@H](CCC(=O)O)C(=O)N[C@H](C(=O)N[C@@H](Cc1ccc(O)cc1)C(N)=O)[C@@H](C)O)C(C)C)[C@@H](C)O
